Read-outs that look alike come from different tables or passages of the source.
What was measured:
[1] = molecular target: T1, TIGIT on thaw-and-use TIGIT effector cells (TIGIT/CD155 blockade bioassay kit, Promega J2305) (UniProt Q495A1 22-244, limits assumed); assay: cell-based or functional assay
T1 sequence (looked up): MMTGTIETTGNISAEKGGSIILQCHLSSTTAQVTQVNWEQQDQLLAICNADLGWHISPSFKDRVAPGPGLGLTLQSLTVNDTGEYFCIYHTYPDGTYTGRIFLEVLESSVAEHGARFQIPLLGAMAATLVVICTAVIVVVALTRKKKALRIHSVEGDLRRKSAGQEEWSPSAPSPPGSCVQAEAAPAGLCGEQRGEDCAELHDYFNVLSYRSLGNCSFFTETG

[2] = molecular target: T2, human TIGIT-His antigen (human, UniProt Q495A1 22-141); assay: SPR (Biacore), antibody captured on an anti-protein A CM5 chip, TIGIT-HIS as analyte in 1/2 serial dilution, contact 120 s, dissociation 600 s
T2 construct: not shown: His tag
T2 chain: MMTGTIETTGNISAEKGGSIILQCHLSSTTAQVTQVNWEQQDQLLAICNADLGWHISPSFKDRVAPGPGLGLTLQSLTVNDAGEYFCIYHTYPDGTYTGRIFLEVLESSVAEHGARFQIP

[3] = molecular target: T3, human TIGIT-Fc antigen (human, UniProt Q495A1 22-141); assay: ELISA, IgG titrated on plate-coated human TIGIT-Fc
T3 construct: not shown: Fc part
T3 chain: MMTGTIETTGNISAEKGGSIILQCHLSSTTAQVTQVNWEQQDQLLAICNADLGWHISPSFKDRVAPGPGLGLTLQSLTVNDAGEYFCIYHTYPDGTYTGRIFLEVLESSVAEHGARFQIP

[4] = molecular target: T3, human TIGIT-Fc antigen; assay: ELISA, IgG titrated on plate-coated human TIGIT-Fc
Protocol: 50 μl of the human TIGIT-Fc antigen was added at a concentration of 3 μg/ml to an ELISA plate, incubated at 4° C. overnight, and then blocked with 1% BSA in PBS at room temperature for 2 hours. […] The result was washed 3 times with PBST (0.05% Tween 20 in PBS), and 50 μl of anti-His-HRP was diluted 1/1000 in PBS and then reacted at room temperature for 1 hour. The result was washed 3 times with PBST (0.05% Tween 20 in PBS), and 50 μl of a TMB solution was added thereto. The result was allowed to react at room temperature for 5 minutes, 50 μl of a TMB stop solution was added thereto, and the absorbance was measured at 450 nm in an ELISA leader.

[5] = molecular target: T4, mouse TIGIT on transfected HEK293 cells (mouse, UniProt P86176 29-249); assay: flow cytometry on HEK293 cells transfected with mouse TIGIT
T4 construct: whole, on cells; GFP-expressing cells were gated; also called TIGIT of mice
T4 sequence (looked up): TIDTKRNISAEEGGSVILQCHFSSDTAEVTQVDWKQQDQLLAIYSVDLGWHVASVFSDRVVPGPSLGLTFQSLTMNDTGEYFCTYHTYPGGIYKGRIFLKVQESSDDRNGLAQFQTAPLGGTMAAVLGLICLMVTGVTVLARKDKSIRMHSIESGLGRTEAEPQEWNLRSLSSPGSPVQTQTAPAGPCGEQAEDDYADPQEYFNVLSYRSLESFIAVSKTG
Protocol: The result was washed once with PBS, and then the cells were resuspended in FACS buffer to a concentration of 5×10⁵ cells/100 μl. 1 μl of a human Fc block solution was added to each sample and reacted at 4° C. for 10 minutes. […] The result was centrifuged in 200 μl of FACS buffer at 1,200 rpm for 5 minutes to remove the supernatant. The cells were resuspended in 300 μl of fixation buffer. The cells expressing GFP were screened using a FACS LSR-Fortessa instrument, and TIGIT candidate antibodies were identified using a PE fluorescence channel and analyzed using FlowJo software.

[6] = molecular target: T2, human TIGIT-His antigen; assay: Octet (BLI), human TIGIT-HIS on penta-His sensor, antibody in solution
Protocol: A 5 μg/ml of human TIGIT-HIS was prepared by diluting the same in a 1×KB buffer. Anti-human TIGIT antibodies were prepared through ½ serial dilution with 1×KB buffer from a starting concentration of 100 nM.

[7] = molecular target: T5, TIGIT on the TIGIT-overexpressing Jurkat cell line (Jurkat-TIGIT) (Homo sapiens (Human), UniProt Q495A1 22-244); assay: flow cytometry on Jurkat-TIGIT cells, antibody 25 to 0.00032 ug/ml, PE goat anti-human Fab'2, MFI
T5 construct: Jurkat E6.1 cells transfected with 'TIGIT cDNA'; also called TIGIT expressed on the cell surface
T5 sequence: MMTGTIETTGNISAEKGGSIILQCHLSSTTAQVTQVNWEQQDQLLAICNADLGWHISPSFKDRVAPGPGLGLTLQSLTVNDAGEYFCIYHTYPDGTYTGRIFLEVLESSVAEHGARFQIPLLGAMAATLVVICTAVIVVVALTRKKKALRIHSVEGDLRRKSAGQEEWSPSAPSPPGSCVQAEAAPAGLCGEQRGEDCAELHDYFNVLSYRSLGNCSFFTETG
Protocol: The cells were resuspended in FACS buffer so that the number of cells was 3×10⁶ cells/ml, and 100 μl of the suspension was added to each well of a U-bottom 96-well plate. Then, the cells and culture solution of each well were recovered and centrifuged at 1,500 rpm, and then the supernatant was discarded. […] This series of processes was repeated twice. Phycoerythrin (hereinafter, referred to as “PE”)-conjugated goat anti-human Fab′2 (Sigma; Cat. #P8047) was diluted in FACS buffer at a volume ratio of 1:500, 100 μl thereof was added to each well, and the reaction was allowed to proceed in the dark at 4° C. for 30 minutes. The cells reacted with PE were recovered, resuspended in FACS buffer, and centrifuged at 1,500 rpm, the supernatant was discarded, and the residue was washed. This series of processes was repeated twice. […] The cells reacted with the fixation buffer were recovered, resuspended in FACS buffer, and centrifuged at 1,500 rpm, the supernatant was discarded, and the residue was washed. This series of processes was repeated twice. The washed cells were resuspended in 200 μl of FACS buffer, and then the median fluorescence intensity (MFI) of PE with which the cells were labeled was compared using a FACS LSR-Fortessa instrument. All FACS analysis was performed using FlowJo software.

[8] = molecular target: T5, TIGIT on the TIGIT-overexpressing …; assay: competition in flow cytometry: Jurkat-TIGIT cells preloaded with PVR-Fc, then antibody; PVR left on the cells detected with anti-PVR-PE, MFI falls with the antibody concentration; the sheet calls the half-maximal value EC50
Protocol: The TIGIT-overexpressing cell line (Jurkat-TIGIT) was resuspended in DPBS supplemented with 2% (v/v) FBS (hereinafter, FACS buffer), centrifuged at 1,500 rpm, and resuspended in FACS buffer so that the number of cells was 3×10⁶ cells/ml, and 100 μl of the suspension was added to each well of a U-bottom 96-well plate. Then, the cells and culture solution of each well were recovered and centrifuged at 1,500 rpm, and then the supernatant was discarded.
This series of processes was repeated twice. […] This series of processes was repeated twice. […] This series of processes was repeated twice. […] The cells reacted with the fixation buffer were recovered, resuspended in FACS buffer, and centrifuged at 1,500 rpm, the supernatant was discarded, and the residue was washed. This series of processes was repeated twice. The washed cells were resuspended in 200 μl of FACS buffer. Then, the median fluorescence intensity (MFI) of PE with which the cells were labeled was compared using a FACS LSR-Fortessa instrument. All FACS analysis was performed using FlowJo software.

[9] = molecular target: T1, TIGIT on thaw-and-use TIGIT effector …; assay: cell-based or functional assay; remark: listed apart in the source
[10] = molecular target: T2, human TIGIT-His antigen; assay: SPR (Biacore), antibody (1G8 IgG4) captured on an anti-protein A CM5 chip, TIGIT-HIS as analyte in 1/2 serial dilution, contact 120 s, dissociation 600 s
Protocol: (§1) 10 μg/ml of anti-protein A was prepared by diluting the same in an acetate 4.0 buffer. 100 nM NHS, 400 mM EDC and 1 M ethanolamine were prepared. The sensor chip used herein was a CM5. The contact time was set at 300s (5 min), the flow rate was set at 5 μg/ml, and the immobilization level was set at 2,500 RU. After performing running, whether the RU reached the target level was monitored in the system control window.
(§2) When running was completed, ka, kd, and KD were obtained by fitting using evaluation software.

[11] = molecular target: T2, human TIGIT-His antigen; assay: SPR (Biacore), antibody (WIN-1B6 IgG4) captured on an anti-protein A CM5 chip, TIGIT-HIS as analyte in 1/2 serial dilution, contact 120 s, dissociation 600 s
Protocol: as §1, §2

Binder	EC50 of bioluminescence (RLU), TIGIT/CD155 blockade bioassay: TIGIT effector cells with CD155 aAPC/CHO-K1 cells [1] [nM]	Kd [2] [nM]	koff [2] [s⁻¹]	kon [2] [M⁻¹ s⁻¹]	EC50 [3] [nM]	EC50 [4] [nM]	binding result [5]	Kd [6] [nM]	koff [6] [s⁻¹]	kon [6] [M⁻¹ s⁻¹]	EC50 [7] [µg/mL]	EC50 [8] [µg/mL]	EC50 of T-cell activation (luminescence, TIGIT/CD155 blockade bioassay with TIGIT effector cells and CD155 aAPC/CHO-K1 cells) [9] [nM]	Kd [10] [nM]	koff [10] [s⁻¹]	kon [10] [M⁻¹ s⁻¹]	Kd [11] [nM]	koff [11] [s⁻¹]	kon [11] [M⁻¹ s⁻¹]
reference antibody (anti-TIGIT) (antibody, V domains shown) VH: EVQLQQSGPGLVKPSQTLSLTCAISGDSVSSNSAAWNWIRQSPSRGLEWLGKTYYRFKWYSDYAVSVKGRITINPDTSKNQFSLQLNSVTPEDTAVFYCTRESTTYDLLAGPFDYWGQGTLVTVSS VL: not shown	6.1	0.375	0.000233	622000															
1E8 (IgG-type anti-TIGIT antibody) (antibody, V domains shown, section 4.2 is headed 'Conversion to IgG4-Type Anti-TIGIT Antibodies') VH: QVQLVQSGTEVKKPGASVKVSCKASGYTFSSYAITWVRQAPGQGLEWMGWISAYNGNTNYAQKLQGRVTMTTDTSTSTAYMELRSLRSDDTAVYYCARVDFWSGYNYFDYWGQGTLVTVSS VL: DIQMTQSPSSLSASVGDRVTITCRASQGISNYLAWYQQKPGKVPKVLIYAASTLQSGVPSRFSGSGSGTDFTLTISSLQPEDVATYYCQKSNSAPLTFGGGTKVEIKR	19.1				~1	1.73	no binding (tested: 1 µg/5×10^5 cells)	0.937	0.000528	563000	0.021	0.102							
1G8 (IgG-type anti-TIGIT antibody) (antibody, V domains shown, section 4.2 is headed 'Conversion to IgG4-Type Anti-TIGIT Antibodies'; also called TIGIT candidate antibody (1G8)) VH: EVQLVQSGAEVKKPGASVKVSCKASGYTFTSYYMHWVRQAPGQGLEWMGIINPSGGSTSYAQKFQGRVTMTRDTSTSTVYMELSSLRSEDTAVYYCASRSGSGWFGALDYWGQGTLVTVSS VL: not shown					~1	1.63	no binding (tested: 1 µg/5×10^5 cells)	0.224	9.32e-05	415000	0.017	0.093	2.1	0.59	0.001	1.78e+06			
WIN_1B6 (IgG-type anti-TIGIT antibody) (antibody, V domains shown, section 4.2 is headed 'Conversion to IgG4-Type Anti-TIGIT Antibodies') VH: QVQLVQSGAEVKKPGASVKVSCKASGYTFTSYGISWVRQAPGQGLEWMGWISAYNGNTNYAQKLQGRVTMTTDTSTSTAYMELRSLRSDDTAVYYCARAGWEQQLGFDYWGQGTLVTVSS VL: AIQLTQSPSSLSASVGDRVTISCRASQTIRSYLNWYQQKPGKAPKLLIYAASSLQSGVPLRFSGSGSGTDFTLTISSLQPEDFATYYCQQSYSTLPLTFGGGTKVEIKR	11.8					0.86	no binding (tested: 1 µg/5×10^5 cells)	0.443	0.000206	465000	0.016	0.068					21.4	0.0245	1.15e+06
WIN_1D2 (IgG-type anti-TIGIT antibody) (antibody, V domains shown, section 4.2 is headed 'Conversion to IgG4-Type Anti-TIGIT Antibodies') VH: QVQLVQSGAEVKKPGASVKVSCKASGYTFTSYGISWVRQAPGQGLEWMGWISAYNGNTNYAQKLQGRVTMTTDTSTSTAYMELRSLRSDDTAVYYCARAGWEQQLGFDYWGQGTLVTVSS VL: AIQLTQSPSSLSASVGDRVTITCRASQSISSYLNWYQQKPGKAPKLLIYAASSLQSGVPSRFSGSGSGTDFTLTISSLQPEDFATYYCQQSYSTLAITFGQGTRLEIKR	27.3				~1	1.75	no binding (tested: 1 µg/5×10^5 cells)	0.571	0.000278	488000	0.017	0.071							
1F10 (IgG-type anti-TIGIT antibody) (antibody, V domains shown, section 4.2 is headed 'Conversion to IgG4-Type Anti-TIGIT Antibodies') VH: EVQLVESGGGLVKPGGSLRISCAASGFTFSNYNMIWVRQAPGKGLEWVSSISSSASYIYYADSVKGRFTISRDNAKNSLYLQMNSLRAEDTAVYYCARDEGSRDSWNNGPYYYSGMDVWGQGTTVTVSS VL: AIQMTQSPSSLSASVGDRVTITCRASQSISRYLNWYQHKPGKAPKLLIYGASSLQSGVPSRFRGSGSGTDFTLTISSLQPEDFATYYCQQSYTTPGAFTFGGGTKVEIKR	35.7					5.35	no binding (tested: 1 µg/5×10^5 cells)	1.32	0.000232	176000	0.08	0.38							

From patent publication US20220162310A1 (GREEN CROSS, published 2022)
